Assay results published in the DeepSol protein solubility set.

Assay: soluble on expression in E. coli; label from the status in PepcDB or PDB records

| Sequence | soluble on expression in E. coli |
| --- | --- |
| MSLRRPYEALRGHFEKCLATPLRPMNLRTLAGNDKGYIHTAVEQLGARTARSYRAIYSEVQKRSLDREINARLSPLESICRREFECCVELSELAEVYLRKMERGEICDADTSQPNEIIDDAQVDSIMKGEGYGGSGNSGGDSSVKRLIDVLESLRPHENLFDIVVNEEWICSPNFNNWLSRFCTRRVSWRVIHEHLLHLVGPGRYSPIIRTDPNVGSILRHTGTVVVEQYVRSIQSIHGGSMFIHMEEQPDLFTRVPSGRLATSSKVDCPIFPTTSMPPAPSSRVIYSVEGHLEYVFRELMKNACLAMRSRTNSIELQVCFASNDTHVVVDVTDAAGGIAPDAVEKLWLFGWTTNSSFDNKMGGFGIGLPASKCYMDLWGGRIDLYTTEGVGTTVRVIFPKAPTEVFVPKGTEGHHHHHH | soluble |
| MSLRSHFATQKDQWQTYTKEKKIKIGFDATFVPMGYEEKDGSYIGFDIDLANAVFKLYGIDVEWQAIDWDMKETELKNGTIDLIWNGYSVTDERKQSADFTEPYMVNEQVLVTKKSSGIDSVAGMAGKTLGAQAGSSGYDAFNASPKILKDVVANQKVVQYSTFTQALIDLNSGRIDGLLIDRVYANYYLEKSGVLDQYNVMPAGYEGESFAVGARKVDKTLIKKINQGFETLYKNGEFQKISNKWFGEDVATDQVKGKREGHHHHHH | soluble |
| MSLRVAIEGCTQGHGTLDAIYASVEESCKQRGWDGVDILIIGGDFQSVRNAEDLSIMSCPVKYRHLGDFPKYYSGERKAPYLTIFIAGNHEASSHLWELYYGGWVAPNIYYMGAANILRFGPLRIAGLSGIWKGFDYRKPHHERLPFSGGDVKSWYHVREIDVRKLLQVQTQVDVGLSHDWPRAVELHGDHEWLFRKKPDFRNESRDGTLGSVAAEYVMDRLRPPHWFSAHMHVKFAAIKTYSEAQPEEGHHHHHH | soluble |
| MSLSAIPPDAIDDESRDTLTGLAGIASASDWLDRNGAKGFVHAMLLGLHRFRSVNLAYGQSAGDIALVELAQRIRIFADEEIGGDTLVARVGGGDFLVASAGKVSRERWQWLAEALARRVSRVLPLRGEELQLAPRIALLRGQPGEGGPALLDRLDQALTTLQQQPARRLQWADGSHLARGRSAARLEADMIGAMARDEIGIVFQPQYAVAGGDIVGVEALARWDHPQLGRIGAETLFALAERGDHVAQVSRHIAGRAMWQAVEWKPVIPLSLNITAEDLGDDRLVEDCRLLLAQTGYPPSSLTVEVTEHALIADFERSAAALEQLARLGVRIALDDFGAGYANFRTLKALPVNTLKLDASLVRDIDRDPRDRAILRAIVAMARALGQKVVVEGIERESQLQVLAAEGCDAFQGFLRSGPIPADQIAALSREGHHHHHH | soluble |
| MSLSCPRCGWVHYINPLPVAIALTVNRNNELLMIRRAHEPAFNEWALPGGFLEAGERPEEGCLRELFEETSLEGTIDKLIGVWHLESGLYGSLIAVAYRVIAAHERISINHEVFEAGFYRPDNMPPVRIPLHRQIIAESRWPERDLSLTEGHHHHHH | not soluble |
| MSLSDLHTKYMGLTLRSPLVASAGPIQQKVDGVRALADAGVGAIVMYSLFEEQVRHEEARQAEIELEYMDSFAESLSFFPTVASNEGGITERYLAHLEASANAVDIPVIASLNGATNGGWVDTAKRMENAGAAGIECNIYMVPGDLEQSAEEVEDRHVEIVQAVKDAVSVPVAVKLSPFFSALGNMATRLDAAGADALVMFNRFLQPDINVETMQVEPGVWLSSPADARLPLTWIAVLSGRIGASLAASSGVESANDVVKYLLAGADVVMTTSALVRHGAGYATELQKGLESYLQRKEVDLDTLRGTLAVPNDASTAEYERNGYVAALEKAKTTYGEGHHHHHH | not soluble |
| MSLSDRWDQTGLKTRVDGVLRSFLDEEAAHLAAVDAALAPVADQLRKAAGHGKRLRAAFCYWGWRAAGQPESDALVRAAASMELVHAAAVVHDDLIDDSRLRHGLPTAHVALEAVLARDGRPDARTAARSLAMLVGDQLMVLAGLLFTTSGLPAAYLARARDLWAVLARELVAGECLEILHTGGPPDTGTSLKVVRYKTAKYTVEHPLLIGGLLAGAAPALRDTYRAYALPLGEAFQLRDDLLGLFGDPERTGKASLDDLRAHRPTALLAETWKAADASQRQWLRRLLGRDDLDATHLHDVRRLMRELNAPQRVEQMIADRVERATRALDGAGTPPHARRALRELAQQATDRTHEGHHHHHH | soluble |
| MSLSEAGHKFLAKLGKKRLRPGGKRATDWLIAEGGFSKEKRILEVACNRGTTAIELAQRFGCKITAVDMDAQALEVAKKSAGTAGVAHLISFERANAMKLPYQDASFDIVINEAMLTMQADQAKKKCVMEYLRVLKPGGLLLTHDVLLKEAKESIRQELSQAIHVNVGPLTQDGWEQVMIESGYCDVKALTGEMTLMKLSGMIYDEGLLGTLKICVNACKKENRKQFLTMYKMFAKNKQKLGFIAMASYKSSEGHHHHHH | soluble |
| MSLSGIINNREYRQKVLKEIILELHNGKSVDEVRKRFQELIKGVSTKEISEMEAQLIKEGMKVEEIQRLCDVHAAVFKGSIDQIHHPEKEEGHPVSVLKKENEAVKNYIQSHLTPNLEEIKKSDSHSTRLKLMENISMLFDLDKHYSRKENLIFPYLEKYGITAPPKVMWGVDDEIREALKECKEVINSANKTPNEITEKVESTLKRIEEMIFKEESILLPMCIDTFSEDEWLDIESESDEIGYCLISPSEKWKPKRENVEEKEKSKLANENSEGYIKFDTGILRVNELSAILDTLPLDITFVDKDGTVKYFSGGSERIFARTRAVIGRKVQNCHPPASVHIVEKVVEDLKSGKKDHEDFWLHMGELYVFIRYYAVKDNKGEFIGVLEVTQNIKEIQEITGEKRLIEEGHHHHHH | soluble |
| MSLSHYTVGELANHLGVTVRTLQYYDRKGLLTAERATESNRRYYNDDHIQQLQLIFLLKQFGCTLDEIKTLLYEDSDMQTLKAMLQLHKKKLETSIHDQTKALKHLNNVDQYISSHSSAPINHLSDIDKAVKQSTTLKSEGHHHHHH | not soluble |
| MSLSIPFDDSRGPYVLAMDIGSTASRGGLYDASGCPIKGTKQRESHEFTTGEGVSTIDADQVVSEITSVINGILNAADHHNIKDQIAAVALDSFASSLILVDGEGNALTPCITYADSRSAQYVEQLRAEIDEEAYHGRTGVCLHTSYHPSRLLWLKTEFEEEFNKAKYVMTIGEYVYFKLAGITGMATSIAAWSGILDAHTGELDLTILEHIGVDPALFGEIRNPDEPATDAKVVDKKWKHLEEIPWFHAIPDGWPSNIGPGAVDSKTVAVAAATSGAMRVILPSVPEQIPSGLWCYRVSRDQCIVGGALNDVGRAVTWLERTIIKPENLDEVLIREPLEGTPAVLPFFSGERSIGWAASAQATITNIQEQTGPEHLWRGVFEALALSYQRVWEHMGKAGAAPERVIASGRVSTDHPEFLAMLSDALDTPVIPLEMKRATLRGTALIVLEQLEPGGTRATPPFGTTHQPRFAHHYSKARELFDALYLKLVEGHHHHHH | soluble |
| MSLSLENFGNFLTLDEKHSFIKKYFKEFYTKDFKLFASKDKHYRTRAELSFYHENDTLFYAMFDPKSKKKYIIEYLDFADEKICAFMPRLLEYLRQDNKLKEKLFGVEFLTTKQELSITLLYHKNIEDIKSNLENLSNILHINLIARSKGKKLIFKTENLRQTLNIQDRKIFYEFNNDCFIQPNTAINEKMITWVCEILNTQKRMDLLELYCGYGNFTLALAPFFFKILATEISKSNINFALKNCELNNTTNIHFARLSSEELSLAIKKEREFFRLKDIRLDDFNFSHVLVDPPRAGLDKSVIDLIKKYGNIIYISCNPMTLKENLKELSLTHRVEEFALFDQFVNTPHLECGVFLSKVEGHHHHHH | soluble |
| MSLSLPLFYAPDIEQSDRLPDDEAGHILRVLRMQAGDRLRLTDGRGSFFDAVIETADRKSCYVSVCGQESWQKPWRDRITIAIAPTKQSERMEWMLEKLVEIGVDEVVFIESEHSERRRIKAERLERIAISAMKQSLKASFPVIRVNIPIQTVIADTPKAAVRLIAYVDEAVRAEITQGRGYPSDFYHVGQDVLILIGPEGDFSPSEVESALLAGFAPVSLGESRLRTETAGLVACQWIHTLQACYRIGEGHHHHHH | soluble |
| MSLSLQQIDQIISILNKQSKPYDWVMQEFAKVEELKNFDLDLETFELLGLGLTLNKDNIFTLKTRTTKIKDEIFCIVDIESTGGVSKGEILEIGAVKIQNSKEIGRFQSFVKVKEIPKNITELTGITYEMVENASSLAKVLSDFRLFLKDSIFVAHNVRFDYSFISKALNECGFGILLNRRICTIEFAQCCIESPKYKLEVLKEFLGVENMHHRALDDALAAAEIFKYCLGKLPYHIKTTEELINFTKTARIKEGHHHHHH | soluble |
| MSLSLYDSAHSLDGKSGWDTPVFSMKDSMDRNPMVTEAWEALCQSQVYFRGKPVGTIAAYDHASEEVLNYDQVFVRDFVPSALAFLMNGEPEIVKNFLLKTLHIQGQDKMIDKFKLGDGAMPASFKVLHNPIKKTDTIIADFGESAIGRVAPVDSGFWWIILLRAYTKSTGDHSLAERPECQKGMRLILSLCLSEGFDTFPTLLCADGCSMVDRRMGIYGYPIEIQALFFMALRSALSMLKHDSEGKEFMEKIVKRLHALSFHMRSYFWLDFQQLNDIYRYKTEEYSHTAVNKFNVIPDSIPDWIFDFMPLRGGYFVGNVSPARMDFRWFALGNCIAILSSLATPEQSMAIMDLIEARWEELVGEMPLKICYPAMESHEWGIVTGCDPKNTRWSYHNGGSWPVLLWLLTAASIKTGRPQIARRAIELAEARLLKDGWPEYYDGKSGRFIGKQARKSQTWSIAGYLVAKMMMDDPTHVGMISMEEEKHMKPPLRRSSSWT | soluble |
| MSLSMDTVNYRPSAYPAISLIEADYRQFAFERHYHLDIHIGLITQGVQRFYHQGAWHQVGQGGVVLMSPDELHDGHAHSNTGYQVQVFSIEPEWLQQTLEANQIEQVIGFEQLIVQDPTLFHSLQQLHHLLRQDNLSQLAKDCLPYQGFAPLLERYSYLKQPTVKPLGQHNLALLKEWVLSQLDQPIRLEQLAQLCQLSPTQFQRHFKAQTGLTPYAWLRRLRLEQAMKLLQSGKPGTDVAYQVGFYDQAHFSKAFKATYGLSPSLITRFSEGHHHHHH | not soluble |
| MSLSPAELHADSIVIDGLIIAKWNRELFEDMRKGGLTAANCTVSVWEGFQATVNNIAASNKLIRDNSDLVIPVRSTADIRKAKEQGKTGILYGFQNAHAFEDQIGYVEVFKQLGVGIVQMCYNTQNLVGTGCYERDGGLSGFGREIVAEMNRVGIMCDLSHVGSKTSEEVILESKKPVCYSHCLPSGLKEHPRNKSDEELKFIADHGGFVGVTMFAPFLKKGIDSTIDDYAEAIEYVMNIVGEDAIGIGTDFTQGHGHDFFEWLTHDKGYARRLTNFGKIVNPLGIRTVGEFPNLTETLLERGMPERVVRKVMGENWVRVLRDVEGHHHHHH | not soluble |
| MSLSQLDKTCVIIGASHAGVNCAFALRKEGWQGGIVLYDADPSLPYHRPPLSKAYLTSDAGIEKYLLKSAESYEKDNITLRMGIQVSAIDRTHKILTLNDGNTRSYDKLVIATGARPIIPPTKGIKTAKNLYPLRNAADVQNIRQALESNENKRVVIVGAGYIGLEIAASLKNRGAQVTVLEREDRVLARVTAPEMSAYFQQLHVSQGVEIVTNKNVVSIAPRNGFNTITCSDGTQYDADVIVMGVGIRVNLELAEDAGLNISNGICVNAAGQTNDEDIYAIGDCTLHYNPHYNRHIRLESVQNAVDQAKVTAAAICGKEVAYNAIPWFWSDQYDVKLQIVGLSSGYNELLIRREDDGRKFSSWYFKDDELLAVDAINNAKAYMIATKFIKERRKVDKIKLTDASVALSPLNLSAESHEGHHHHHH | soluble |
| MSLSQLFIVYLGGSAPKANIELHDVQFVIADNIEGTYEQLRQNWFGTVKDLHLDSYKAVKGADGYQISIQDKPQNSDKKLYFVNLGGYDASKLNELHEFALFVAADNTEAKEKAKQSLLKNSLHQHKDNLMEVDDCLELSKVDGKYIHLTPSDKEYDLKPYWFGYRVIGEGHHHHHH | soluble |
